Test results taken from paper PMC5318870.

Target: T1, RSV attachment glycoprotein G (RSV-G Protein, His Tag) (respiratory syncytial virus) (UniProt O36633)
T1 sequence: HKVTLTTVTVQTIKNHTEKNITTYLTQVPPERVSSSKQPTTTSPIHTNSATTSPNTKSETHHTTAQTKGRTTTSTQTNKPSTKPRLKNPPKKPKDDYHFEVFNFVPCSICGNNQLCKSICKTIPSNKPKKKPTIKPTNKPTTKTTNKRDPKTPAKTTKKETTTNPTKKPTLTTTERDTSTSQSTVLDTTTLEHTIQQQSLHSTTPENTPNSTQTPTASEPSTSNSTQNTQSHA
Assay: fluorescence polarization
Details: FP: PBS pH 7.4, 0.5 nM aptamer; filter binding: PBS, BSA, 0.1% Tween 20, 0.1 ug/ml poly(dIdC), 50 nM aptamer, 20 min RT; ALPHA: HBSS, 1 mg/ml BSA, 0.05 ug/ml …

Sequence: TAGGGAAGAGAAGGACATATGATAGTGCGGTGAGCCGTCGGACATACAAATACTTGACTAGTACATGACCACTTGA [H8 (Alexa Fluor 488)]
- Kd: 0.03 µM
